{
  "source": "paper PMC8996214",
  "about": "“Aptamer blocking S-TLR4 interaction selectively inhibits SARS-CoV-2 induced inflammation”",
  "binders": {"B1": {"name": "ST-6 (structured_DNA)", "DNA": "AGCAGCACAGAGGTCAGATGAGGGCATCAAAGGGGGGAGGGCGGGTGGATTGGATGCCGACCTATGCGTGCTACCGTGAA"}},
  "data": [
    {"target": "SARS-CoV-2 spike trimer (SARS-CoV-2, UniProt P0DTC2)", "assay": "BLI", "settings": "protein: commercial; tags: His", "values": [
      {"binder": "B1", "binding result": "binds"},
      {"binder": "AGGGCATCAAAGGGGGGAGGGCGGGTGGATTGGATGCCGA (structured_DNA)", "note": "[ST-6-1]", "binding result": "binds"},
      {"binder": "GGGGAGGGCGGGTGGATTGGATGCCGA (structured_DNA)", "note": "[ST-6-2]", "binding result": "binds"}
    ]},
    {"target": "HCoV-HKU1 spike protein (HCoV-HKU1, UniProt Q5MQD0)", "sequence (Q5MQD0 13-1300)": "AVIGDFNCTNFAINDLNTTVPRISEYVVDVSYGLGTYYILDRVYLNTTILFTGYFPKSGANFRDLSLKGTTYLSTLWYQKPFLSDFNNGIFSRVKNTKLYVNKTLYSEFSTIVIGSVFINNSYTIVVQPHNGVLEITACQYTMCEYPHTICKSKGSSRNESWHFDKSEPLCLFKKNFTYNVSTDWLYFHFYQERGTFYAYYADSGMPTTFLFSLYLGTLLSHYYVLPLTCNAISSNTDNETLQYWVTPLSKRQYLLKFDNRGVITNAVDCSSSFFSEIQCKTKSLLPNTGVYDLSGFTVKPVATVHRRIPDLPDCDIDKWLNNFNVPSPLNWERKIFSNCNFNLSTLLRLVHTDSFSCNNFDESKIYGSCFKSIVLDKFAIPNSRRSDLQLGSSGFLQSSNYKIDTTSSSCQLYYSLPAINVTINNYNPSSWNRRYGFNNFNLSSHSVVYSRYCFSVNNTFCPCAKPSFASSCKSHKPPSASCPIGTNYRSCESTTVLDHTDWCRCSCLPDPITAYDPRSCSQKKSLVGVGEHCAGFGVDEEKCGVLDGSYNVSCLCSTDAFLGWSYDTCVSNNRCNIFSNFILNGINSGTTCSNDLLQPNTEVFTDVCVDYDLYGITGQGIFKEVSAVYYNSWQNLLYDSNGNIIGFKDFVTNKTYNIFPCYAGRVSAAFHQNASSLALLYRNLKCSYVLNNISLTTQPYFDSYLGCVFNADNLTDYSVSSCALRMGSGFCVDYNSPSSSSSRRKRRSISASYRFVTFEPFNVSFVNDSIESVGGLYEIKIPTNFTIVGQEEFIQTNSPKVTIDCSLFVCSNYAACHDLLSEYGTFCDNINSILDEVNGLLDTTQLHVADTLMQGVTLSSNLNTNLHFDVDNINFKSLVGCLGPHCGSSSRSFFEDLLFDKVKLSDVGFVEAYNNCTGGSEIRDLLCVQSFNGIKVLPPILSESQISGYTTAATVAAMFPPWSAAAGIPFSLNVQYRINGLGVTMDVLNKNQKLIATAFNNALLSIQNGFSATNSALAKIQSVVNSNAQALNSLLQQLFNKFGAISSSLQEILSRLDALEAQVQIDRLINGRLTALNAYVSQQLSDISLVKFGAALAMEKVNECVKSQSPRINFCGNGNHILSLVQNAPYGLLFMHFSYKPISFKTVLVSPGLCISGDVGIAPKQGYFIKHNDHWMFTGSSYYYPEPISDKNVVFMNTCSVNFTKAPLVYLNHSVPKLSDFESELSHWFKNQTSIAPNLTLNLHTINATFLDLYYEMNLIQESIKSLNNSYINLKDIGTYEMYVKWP", "assay": "ELISA", "settings": "protein: commercial", "values": [
      {"binder": "B1", "binding result": "no binding"},
      {"binder": "AGGGCATCAAAGGGGGGAGGGCGGGTGGATTGGATGCCGA (structured_DNA)", "note": "[ST-6-1]", "binding result": "no binding"},
      {"binder": "GGGGAGGGCGGGTGGATTGGATGCCGA (structured_DNA)", "note": "[ST-6-2]", "binding result": "no binding"}
    ]},
    {"target": "TLR4 (UniProt O00206 24-631)", "sequence (O00206 24-631)": "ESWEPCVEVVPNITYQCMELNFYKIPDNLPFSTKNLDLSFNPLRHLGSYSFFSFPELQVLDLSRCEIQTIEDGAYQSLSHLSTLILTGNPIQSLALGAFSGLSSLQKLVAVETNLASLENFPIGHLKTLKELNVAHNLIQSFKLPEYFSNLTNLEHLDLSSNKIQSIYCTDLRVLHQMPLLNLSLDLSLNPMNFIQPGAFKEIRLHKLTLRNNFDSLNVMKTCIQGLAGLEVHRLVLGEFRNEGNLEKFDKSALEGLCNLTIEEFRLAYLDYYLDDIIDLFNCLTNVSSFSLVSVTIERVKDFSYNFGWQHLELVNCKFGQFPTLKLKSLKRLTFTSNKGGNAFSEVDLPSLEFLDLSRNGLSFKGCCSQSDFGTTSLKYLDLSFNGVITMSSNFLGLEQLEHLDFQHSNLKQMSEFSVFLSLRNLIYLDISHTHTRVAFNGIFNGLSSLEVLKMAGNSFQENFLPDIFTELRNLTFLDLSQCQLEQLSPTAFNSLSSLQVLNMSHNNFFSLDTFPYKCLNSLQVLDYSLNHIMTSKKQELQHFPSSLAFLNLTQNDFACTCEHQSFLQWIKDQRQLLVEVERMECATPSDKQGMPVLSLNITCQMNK", "assay": "ELISA", "settings": "protein: commercial", "values": [
      {"binder": "B1", "binding result": "no binding"},
      {"binder": "AGGGCATCAAAGGGGGGAGGGCGGGTGGATTGGATGCCGA (structured_DNA)", "note": "[ST-6-1]", "binding result": "no binding"},
      {"binder": "GGGGAGGGCGGGTGGATTGGATGCCGA (structured_DNA)", "note": "[ST-6-2]", "binding result": "no binding"}
    ]},
    {"target": "ACE2 (UniProt Q9BYF1 18-740)", "sequence (Q9BYF1 18-740)": "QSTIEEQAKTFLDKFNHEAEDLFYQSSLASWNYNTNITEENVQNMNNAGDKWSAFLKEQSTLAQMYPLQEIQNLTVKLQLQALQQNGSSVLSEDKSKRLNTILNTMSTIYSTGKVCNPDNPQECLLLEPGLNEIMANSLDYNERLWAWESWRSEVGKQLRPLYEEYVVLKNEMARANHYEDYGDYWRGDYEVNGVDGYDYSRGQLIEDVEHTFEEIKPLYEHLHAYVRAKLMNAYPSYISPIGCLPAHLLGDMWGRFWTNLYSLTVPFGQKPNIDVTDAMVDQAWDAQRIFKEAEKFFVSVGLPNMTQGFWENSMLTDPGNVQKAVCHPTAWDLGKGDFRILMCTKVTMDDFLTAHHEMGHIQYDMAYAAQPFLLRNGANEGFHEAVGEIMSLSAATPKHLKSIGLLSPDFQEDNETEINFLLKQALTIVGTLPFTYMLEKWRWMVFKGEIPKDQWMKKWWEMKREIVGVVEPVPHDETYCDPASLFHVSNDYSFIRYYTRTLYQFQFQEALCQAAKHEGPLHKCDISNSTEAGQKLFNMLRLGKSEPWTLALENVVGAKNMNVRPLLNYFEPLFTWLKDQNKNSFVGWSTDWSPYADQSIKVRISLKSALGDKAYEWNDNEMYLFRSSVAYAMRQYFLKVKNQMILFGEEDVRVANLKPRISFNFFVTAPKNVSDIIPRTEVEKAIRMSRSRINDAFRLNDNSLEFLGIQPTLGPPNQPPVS", "assay": "ELISA", "settings": "protein: commercial", "values": [
      {"binder": "B1", "binding result": "no binding"},
      {"binder": "AGGGCATCAAAGGGGGGAGGGCGGGTGGATTGGATGCCGA (structured_DNA)", "note": "[ST-6-1]", "binding result": "no binding"},
      {"binder": "GGGGAGGGCGGGTGGATTGGATGCCGA (structured_DNA)", "note": "[ST-6-2]", "binding result": "no binding"}
    ]},
    {"target": "SARS-CoV-2 spike RBD (SARS-CoV-2, UniProt P0DTC2 319-541)", "assay": "ELISA", "settings": "not given", "values": [
      {"binder": "B1", "binding result": "no binding"},
      {"binder": "AGGGCATCAAAGGGGGGAGGGCGGGTGGATTGGATGCCGA (structured_DNA)", "note": "[ST-6-1]", "binding result": "no binding"},
      {"binder": "GGGGAGGGCGGGTGGATTGGATGCCGA (structured_DNA)", "note": "[ST-6-2]", "binding result": "no binding"}
    ]},
    {"target": "PDGF-AA (UniProt P04085 87-211)", "assay": "ELISA", "settings": "protein: commercial; chain copies: 2", "values": [
      {"binder": "B1", "binding result": "no binding"},
      {"binder": "AGGGCATCAAAGGGGGGAGGGCGGGTGGATTGGATGCCGA (structured_DNA)", "note": "[ST-6-1]", "binding result": "no binding"},
      {"binder": "GGGGAGGGCGGGTGGATTGGATGCCGA (structured_DNA)", "note": "[ST-6-2]", "binding result": "no binding"}
    ]},
    {"target": "SARS-CoV spike protein (SARS-CoV, UniProt P59594 14-1195)", "assay": "ELISA", "settings": "protein: commercial; chain copies: 3; label: 5'-biotin (BLI, ELISA); Cy3 (flow cytometry); FAM (imaging); G-quadruplex", "values": [
      {"binder": "B1", "binding result": "no binding"},
      {"binder": "AGGGCATCAAAGGGGGGAGGGCGGGTGGATTGGATGCCGA (structured_DNA)", "note": "[ST-6-1]", "binding result": "no binding"},
      {"binder": "GGGGAGGGCGGGTGGATTGGATGCCGA (structured_DNA)", "note": "[ST-6-2]", "binding result": "no binding"}
    ]},
    {"target": "MERS-CoV spike protein (MERS-CoV, UniProt K9N5Q8 18-1296)", "sequence (K9N5Q8 18-1296)": "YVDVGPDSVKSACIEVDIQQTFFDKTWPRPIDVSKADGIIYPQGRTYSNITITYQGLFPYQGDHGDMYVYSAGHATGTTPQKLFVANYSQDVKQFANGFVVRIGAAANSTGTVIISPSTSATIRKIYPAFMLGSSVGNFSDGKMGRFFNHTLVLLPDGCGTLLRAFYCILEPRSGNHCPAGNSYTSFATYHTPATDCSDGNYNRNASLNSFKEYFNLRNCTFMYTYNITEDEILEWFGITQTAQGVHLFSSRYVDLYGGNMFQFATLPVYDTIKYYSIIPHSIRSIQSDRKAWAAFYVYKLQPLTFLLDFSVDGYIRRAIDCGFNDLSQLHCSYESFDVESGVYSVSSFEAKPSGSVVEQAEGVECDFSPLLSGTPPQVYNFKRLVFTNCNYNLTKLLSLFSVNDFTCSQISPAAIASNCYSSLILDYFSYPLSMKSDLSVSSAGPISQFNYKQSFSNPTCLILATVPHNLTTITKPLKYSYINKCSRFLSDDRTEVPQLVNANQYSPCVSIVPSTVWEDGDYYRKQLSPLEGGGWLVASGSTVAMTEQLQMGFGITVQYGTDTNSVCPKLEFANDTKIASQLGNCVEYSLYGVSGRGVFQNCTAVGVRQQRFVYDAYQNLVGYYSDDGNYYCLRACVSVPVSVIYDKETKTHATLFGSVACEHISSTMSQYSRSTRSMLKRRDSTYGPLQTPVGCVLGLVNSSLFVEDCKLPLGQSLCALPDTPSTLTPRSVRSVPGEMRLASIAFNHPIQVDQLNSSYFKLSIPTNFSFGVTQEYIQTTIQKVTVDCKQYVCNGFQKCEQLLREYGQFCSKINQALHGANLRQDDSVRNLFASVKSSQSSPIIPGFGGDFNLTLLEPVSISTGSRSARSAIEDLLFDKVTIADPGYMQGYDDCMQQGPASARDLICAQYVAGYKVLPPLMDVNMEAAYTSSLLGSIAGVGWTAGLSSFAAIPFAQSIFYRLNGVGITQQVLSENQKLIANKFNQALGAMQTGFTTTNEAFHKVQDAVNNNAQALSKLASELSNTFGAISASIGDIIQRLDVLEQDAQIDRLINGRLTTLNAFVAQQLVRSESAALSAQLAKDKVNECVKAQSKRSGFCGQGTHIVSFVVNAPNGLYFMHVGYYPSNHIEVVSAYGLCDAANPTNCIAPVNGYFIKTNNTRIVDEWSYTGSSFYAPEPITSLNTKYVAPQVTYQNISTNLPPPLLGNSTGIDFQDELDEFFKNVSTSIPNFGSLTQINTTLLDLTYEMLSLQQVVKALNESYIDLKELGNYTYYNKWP", "assay": "ELISA", "settings": "protein: commercial; chain copies: 3; label: 5'-biotin (BLI, ELISA); Cy3 (flow cytometry); FAM (imaging); G-quadruplex", "values": [
      {"binder": "B1", "binding result": "no binding"},
      {"binder": "AGGGCATCAAAGGGGGGAGGGCGGGTGGATTGGATGCCGA (structured_DNA)", "note": "[ST-6-1]", "binding result": "no binding"},
      {"binder": "GGGGAGGGCGGGTGGATTGGATGCCGA (structured_DNA)", "note": "[ST-6-2]", "binding result": "no binding"}
    ]}
  ]
}
